Data as given in PMC9898865.

Biological target: SARS-CoV-2 S protein (residues 1-1212 with stabilizing mutations R684G, R685S, R678G, K998P and V999 (SARS-CoV-2) (UniProt P0DTC2))
Test: ELISA; ELISA-like solid-phase binding: ligands coated on 96-well plates in TBS, 6 h RT (S protein 20 µg/ml, vitronectin 5 µg/ml, fibrinogen 20 µg/ml, fibronectin 10 µg/ml); velcro-tagged integrins at 10 µg/ml in 20 mM Hepes, 150 mM NaCl, 1 mM MnCl2, pH 7.2, 2 h RT; detected by biotinylated anti-velcro antibody, streptavidin-HRP, ABTS, 405 nm

Q: With “velcro-tagged integrin α5β1 (from UniProt P08648 42-995; P05556 21-728) (receptor)” as the substance, how does the fold weaker than the binding to the physiological ligand (fibronectin) read?
A: < 10 fold
